Data as given in the DeepSol protein solubility set.

Assay: soluble on expression in E. coli; label from the status in PepcDB or PDB records

Question: With “SNAMSKRVLMVVTNHTTITDDHKTGLWLEEFAVPYLVFQEKGYDVKVASIQGGEVPLDPRSINEKDPSWAEAEAALKHTARLSKDDAHGFDAIFLPGGHGTMFDFPDNETLQYVLQQFAEDGRIIAAVCHGPSGLVNATYKDGTPIVKGKTVTSFTDEEEREVGLDVHMPFLLESTLRLRGANFVRGGKWTDFSVRDGNLITGQNPQSSRSTAEKVVAALEERE” as the sequence, how does the “soluble on expression in E. coli” value read?
Answer: soluble

Question: For “KSAKEMLEYCNSTGLSLSGMVMQNELALHSKKEIEEYFGHVWQTMQACIDRGMNTEGVLPGPLRVPRRASALRRMLVSSDKLSSDPMNVIDWVNMFALAVNEENAAGGRVVTAPTNGACGIVPAVLAYYDHFIESVSPDIYTRYFLAAGAIGALYKMNASISGAEVGCQGEVGVACSMAAAGLAELLGASPEQVCVAAEIGMEHNLGLTCDPVAGQVQVPCIERNAIASVKAINAARMAMRRTSAPRVSLDKVIETMYETGKDMNAKYRETSRGGLAIK”, which “soluble on expression in E. coli” value is on record?
Answer: not soluble

Question: With “HHHHHHHMTAPAADDRIDEIERAITKSRRYQTVAPATVRRLARAALVAARGDVPDAVKRTKRGLHEIYGAFLPPSPPNYAALLRHLDSAVDAGDDEAVRAALLRAMSVHISTRERLPHLDEFYRELFRHLPRPNTLRDLACGLNPLAAPWMGLPAETVYIASDIDARLVGFVDEALTRLNVPHRTNVADLLEDRLDEPADVTLLLKTLPCLETQQRGSGWEVIDIVNSPNIVVTFPTKSLGQRSKGMFQNYSQSFESQARERSCRIQRLEIGNELIYVIQK” as the sequence, how does the “soluble on expression in E. coli” value read?
Answer: soluble

Question: With “MSRISVENVKHVAHLARLAITDQEAEKFQKQLDAIVTFAEQLNELDTTDVKPTTHVLTMKNVMREDVPEKGLPVEEVLKNAPDHKDNQIRVPAVLE” as the sequence, how does the “soluble on expression in E. coli” value read?
Answer: not soluble

Question: Which “soluble on expression in E. coli” value does the source give for “AFEKKTANIYTYKSTSGVTSFSDIEPLDVDFSRYRFDCYACEVDSLIDWRKATLYLQPYKNDINKAALKYDIDPAFVRAVIHAESHFNPQAVSKQGAQGLMQLMPATAKELGVRNSLSAQQNIKGGVKHLARLLRKYKGDNKLASAAYNAGEGAVKRHGGIPPYKETQVYVERVGILHQRYGRFSH” here?
Answer: not soluble

Question: With “MFRRPDDDDDDYSGRKVIKPKPIAEKYAKKLGSEFSTGKTFVTGSDKSQKDFYGSQQVRNDVMKSSDSGGAPLTEDEKNKLSAKILKAEMKGDTDLVKKLKRKLESGISGDDEPPKSKSKEVTMMRRDREGNILPASSRRSDSDRHGEGSSRMRREYEKSQDLDSMVREEKTGTAGDQLRLFERSLIKSSKIRRHDDESVDDIAEMQKGKKKSDEKDKKRKEKESIKEHKRIERSFDDCSRCIDSSRLKKHNIIAVGINTYLAVVEWDGLDDEHLIIVPTQHCSSTIQLDENVWDEMRLWRKGLVAVWKSQNRDCIFFEMSRHVDSNPHVFIECVPVEQEIGDMASIYFKKAINECEGEYMDNKKLIETKDLRRQIPKGFSYFAVDFGLSNGFAHVIESHDHFPSTFATEIIAGMLDLPPKKWRKRETDEMSKQKSRAENFKKLWEPVDWTKRLKNDSTK” as the sequence, how does the “soluble on expression in E. coli” value read?
Answer: soluble

Question: For “MSDSPDSPPDAEPSIAARIAAVLPSLTPIHRRMGEYVLANPFRAATMRIDELANAVDASIATANRFARALGFDGYPALRAALVRGFEATLAPVERLRSAQEHEAGARGGELIDASFEQAL”, which “soluble on expression in E. coli” value is on record?
Answer: not soluble

Question: For “MINRPSTVNNPFIGTNAVLRLRQQRLEQSTKPFRARGSRVMRCQQCLLPAINCLCHTIQAQPSRSRVCLVMFDTEPLKPSNTGRIIADILPETQAFRWSRTEPDPQLLATLQDPDVQPYLVFLADAAEEGRQVFQQLPATEKPALFVLLDGTWPEARKMFRKSPYLDNLPILSLNVEALSRYQLREASSAGQHCTAEIAIALLAQAGDIVAADALSQHFDRFRQHYLAGKPHHRLQENLPIVTAQPAESVLEHHHHHH”, which “soluble on expression in E. coli” value is on record?
Answer: not soluble

Question: Which “soluble on expression in E. coli” value does the source give for “MGSDKIHHHHHHMNLNALIDFMLVANNEGLGKASRASGISKATLSRRIADLEEQLGVRLIERSARGLKLTEAGEMLMARTEGPLGEVAEAMTATRDGVATPRGRLRVASPVLFSQLAMGRIGAGFYAAYPEVIIEVTAEDRLVDLVEEQFDVAIRINPDPDSRLVGRCFARDRLVVVAAPELPRPMPGAIRQTPAIVTSSFQPTHWKLDNGHLVLKPIPKLWFSSLMMVRDAAVAGGGAALIPQSIAWSQLASGQLVQWGTVSGAEPELWVLHTSRRLVSPKVRAFVDFICASNPDMSLVLKG” here?
Answer: not soluble

Question: With “MQKSKRNAKKKAVSTREKSARSSRGTNKSQRSARSKMAKPRTAETREDAYSCHRTMEEKSTNQQYSALSVRSETTSKVKKLPSKLDASLSARKKGKKESNEEDKKMRDSERQKREKKEVPKEMRQSMMGSVFEEIEGPVSPAPLEKDENKMEWKIDVDPVVLTGDQRMSDVLGKMKDLKKNSGWKKCKVLKANEKTPDNDDEPTEESIYLSARVLQLVKMESLISKEVSKEDQEILRGYCRSNDHKDKVEPIFEAIAVSILEKVASKNEFIRNVSIPGQLRMFAVDENKSKFSTMALLIVRCDLFYYSWNKPALDDEDQLDPTWANMTRRPSVTPPDSQ” as the sequence, how does the “soluble on expression in E. coli” value read?
Answer: not soluble

Question: For “MGSDKIHHHHHHVSENTLKPQVNKLLAALPTNDYERLIPHLKLVSLPTRQVIYEPGEPIKQVYFPQNAVVSIVTGMKDGSTVEVGIVSNEGMVGIPVILGGSTTTTKAFVQVAGSGVQIDADVLRTEFNRGGAIQNLLLRYIRATYTELTQGCACNRLHTLEERLARWLLTVSDRLESEEFPLTQEFIAQMLGVRRSGVTVAASALSRAGMISYQRGQINILNREDLEETSCECYRVIQNEFARLLKNQPKRDRR”, which “soluble on expression in E. coli” value is on record?
Answer: not soluble

Question: For “MRTIPPDDVYISSTLPFEETTTEMMTTMETSTMTEKVCPEMPATTCMDLIKLGAKLELAEVDGCQVVQCTGGQIPRLITRNSVFSPKLYAGLSDATIVFPVPPTTLAGFGGKSFFDYYGLICDTFNGNFYWTMTKYPDGLIDLGGGQPILGSDGSYDGKQAPIEQVDCQEPK”, which “soluble on expression in E. coli” value is on record?
Answer: not soluble

Question: For “GYDGVRIGQGYDIHQIRVGPPEDIVADTTADTAANTADPNKQSFKRLTIGGVPVETISVLSHSDGDVIFHALVDALLGGMSCSDLGTLFPDGSPKYKNKNSLSFLRYARLLLYKRNYAIANVDIIVIAEVPKISPIREEIVRNISSALGISESQVSLKGKTHEQLGPVGQKKAIECFANALLIRKQS”, which “soluble on expression in E. coli” value is on record?
Answer: soluble

Question: Which “soluble on expression in E. coli” value does the source give for “MVPVVALVGRPNVGKSTLFNRLTRTRDALVADFPGLTRDRKYGRAEIEGREFICIDTGGIDGTEDGVETRMAEQSLLAIEEADVVLFMVDARAGLMPADEAIAKHLRSREKPTFLVANKTDGLDPDQAVVDFYSLGLGEIYPIAASHGRGVLSLLEHVLLPWMEDLAPQEEVDEDAEYWAQFEAEENGEEEEEDDFDPQSLPIKLAIVGRPNVGKSTLTNRILGEERVVVYDMPGTTRDSIYIPMERDGREYVLIDTAGVRKRGKITDAVEKFSVIKTLQAIEDANVVMLVIDAREGISDQDLSLLGFILNSGRSLVIVVNKWDGLSQEVKEQVKETLDFRLGFIDFARVHFISALHGSGVGNLFESVREAYDSSTRRVGTSMLTRIMTMAVEDHQPPLVRGRRVKLKYAHAGGYNPPIVVIHGNQVKDLPDSYKRYLMNYFRKSLDVMGSPIRIQFKEGENPYANKRNTLTPTQMRKRKRLMKHIKKNK” here?
Answer: not soluble

Question: With “RSVRVLVDMDGVLADFEAGLLRGFRRRFPEEPHVPLEQRRGFLAREQYRALRPDLADKVASVYEAPGFFLDLEPIPGALDAVREMNDLPDTQVFICTSPLLKYHHCVGEKYRWVEQHLGPQFVERIILTRDKTVVLGDLLIDDKDTVRGQEETPSWEHILFTCCHNRHLVLPPTRRRLLSWSDNWREILDSKR” as the sequence, how does the “soluble on expression in E. coli” value read?
Answer: soluble

Question: For “MREKLTVIKVGGKIVEEEATLLQLLNDFAAISGHKVLVHGGGRSATKIAAQLGIESKMVNGRRITDAETLKVVTMVYGGLVNKNIVAGLQARGVNALGLTGADMNVIRSVKRPVKEVDYGFVGDVEKVDASLLADLIHKGVVPVMAPLTHDGQGNMLNTNADTIAGETAKALSALFDVTLVYCFEKKGVLRDENDDDSVIPEITRAEFEQYVADGVIQGGMIPKLENSFEAINAGVTEVVITLASAIKDNEGTRIKK”, which “soluble on expression in E. coli” value is on record?
Answer: not soluble

Question: Which “soluble on expression in E. coli” value does the source give for “MNKLRKTIGRLEVKCKNADAGCIVTCPLAHRKGHQDSCPFELTACPNEGCTSQVPRGTLAEHRQHCQQGSQQRCPLGCGATLDPAERARHNCYRELHNAWSVRQERRRPLLLSLLRRVRWLDQATSVVRRELAELSNFLEEDTALLEGAPQEEAEAAPEGNVGAEVVGEPRANIPCK” here?
Answer: soluble

Question: For “MGSDKIHHHHHHMNTYFDNATSSYPKPDAMRQALAYFYDVPVGSYGRSRDRETLRVTSEVEELRDALADLIGVSESAHICFADNATTGINTILRGSLQAGCSVLVSPMEHNAVMRPLQCLADTIGLKIALMPSMPDGRVDTDRLVSAIPTDTALAVVNLESNVNGLVQPIEEIARLLTQERGIPILADATQYLGTSRLKADELGLAYVAFTGHKGLLGPSGTGGFYIRDPRSVHPLTTGGNGLHSADWTVGVEMPERFMAGTVNVLGLTALLASVRQLPPFRISRDAWKQCMQQMQRFPGLRVYGAADPIEQGYLCSLTHDRLTPARIGDALYEAFDIVTRTGIHCAPLAHRSIGTFATGTVRLSLSPYHEEADLEYLLNALSHVLRS”, which “soluble on expression in E. coli” value is on record?
Answer: not soluble

Question: For “MGSDKIHHHHHHMKIELENCQKSLTLKDFEEIESKLGYALPERLKEFYLQYNGGSTKQTASINKYQEVEIEDFFPFKYNKDFKNDPRYTAEGETLELRKAGAISDSILIFAMESTDEGRITIDLVNGKIYLYPIVGMQDVIFNFEEPRLVANSIDDFFDNLVVLDGHKAIPAIEEIEEGQTETAGVMPELSDCSASLTKEDIKNFEVELNVKIPAGMKNFYLKFNGGMPSPYCYQPQDEDLDRVEINAFFPIKERTNAFETIEVIAKGIWSRNLMPCNLLPFAMDSGGNYYALNLKNKKIYYYLTDEWDENASREYNFETNTRYIAQSFNYFINHFIEEEE”, which “soluble on expression in E. coli” value is on record?
Answer: not soluble

Question: For “MKLAVIAANGQAGKAIVEEAVKRGHEVTAIVRSENKSQAESIIKKDLFELTKDDLTGFDAVISAFGAYTPDTLPLHSKSIELFNQLLAGTQTRFLVVGGAGSLYIDETKTTRLLDTPDFPEEFKPLAKAQADELDLLRTKNNLNWTFVSPAVDFIPDGEKTGNYILAGEIFTTNEKGISQISYADYAIGLVDELEKGHHIKERISLLEKLEHHHHHH”, which “soluble on expression in E. coli” value is on record?
Answer: soluble

Question: With “MSLKFAAGFVLIDAPHSALNMLGIDESLPDRNVTRVKTLRRGGNRYVYISPQAWRYWWRITLKEYFNWELSPLFREEKQVFTAANPIKYPDDDVFGYMRAYKKNKVNVTVTRISPLKNTPLVSVLPDRSSLTIDEGYASRHEGDPVPYSQEFYSTVLKGAFSLDLDLVGRFTTKNKAGYKNLLTRDDIPKKGKGEDIVKEIKELEELARNVGVEIKDGEWIMPKEIRKKRSIETIKALRYLTGGAKQTQYHTDVTPKLFLGIIVNGGINPFISDIVREEKGEIILDAEALATRLEDFSDIIDSKLFLGYDMGFVRSLGLEIEAIKSTAGIEVVEGKVGEIIEKFAEEAGKYYIEGHHHHHH” as the sequence, how does the “soluble on expression in E. coli” value read?
Answer: soluble

Question: Which “soluble on expression in E. coli” value does the source give for “MGSDKIHHHHHHMERRRWLGAMAGVCPSCGRTLEGSGVRRLCPDCYVERYGVARIPEAVKFVYCRDCGAYRYQGGWNEGLESVEDTLREYLHMVLTVRMKPTEAVEEAWVESIELVQAFAGPGVYTALVTVAGRAGGQSLVERKIITVEASQALCPRCTARSTGRGFEAEVKVRSTAGSLGRDVKTGIARVLRRSRSIAGFVVKVDENREGLDIYLTDQTAARMLAGKLRSEFSAEVKESYKLVGRQPSGRRKGRLTISVRIPEYRPGELISVEGRPHLYLGRSGRGLVTIDLDTGRERVVDTSRTGVLAGVKRYEPGARLRRMMLLSSSGDSMVFLDVDKGMQEVVDAPRGSVRPFVESMEPGRVYEVFIHGGRIYVLRETG” here?
Answer: not soluble
